# B1: S1 (dsDNA)
# DNA 1: GCGGTGTAGTTATCACGCCG
# DNA 2: CGGCGTGATAACTACACCGC
# B2: S2 (dsDNA)
# DNA 1: TCACGCCGTTTCAGCGTGGAAACGGCACTC
# DNA 2: GAGTGCCGTTTCCACGCTGAAACGGCGTGA
# B3: Rv0341p (iniB) (dsDNA)
# DNA 1: CGCCGGTCACGCCGGCGAACA
# DNA 2: TGTTCGCCGGCGTGACCGGCG
# B4: Rv0574cp (dsDNA)
# DNA 1: GCGGTCTTGAGGACCTTCGGCCCCACCCACGAGGCCGCCG
# DNA 2: CGGCGGCCTCGTGGGTGGGGCCGAAGGTCCTCAAGACCGC
# B5: Rv3476cp (kgtP) (dsDNA)
# DNA 1: CTGCATCCACGCCGGCGACACGCCGAGGGACG
# DNA 2: CGTCCCTCGGCGTGTCGCCGGCGTGGATGCAG
# B6: CgluproPp (dsDNA)
# DNA 1: GACTTTTCACCCCGAACCTTA
# DNA 2: TAAGGTTCGGGGTGAAAAGTC
# B7: CglumepAp (dsDNA)
# DNA 1: CCCCTAGCACGGCGTGTTTGG
# DNA 2: CCAAACACGCCGTGCTAGGGG
# B8: Negative control (dsDNA)
# DNA 1: CGGAGGTGGTTTTCGCTGCT
# DNA 2: AGCAGCGAAAACCACCTCCG
# B9: S3 (dsDNA)
# DNA 1: TTTCAGCGTGGAAACGGCACTC
# DNA 2: GAGTGCCGTTTCCACGCTGAAA
# B10: S4 (dsDNA)
# DNA 1: GCGAGCCGTTGCCGGTAGGTTGCGGCTGGT
# DNA 2: ACCAGCCGCAACCTACCGGCAACGGCTCGC
# B11: S5 (dsDNA)
# DNA 1: AACACGAGGATCGCGAGCCGTTGCCGGTAGGTTGCGGCTGGT
# DNA 2: ACCAGCCGCAACCTACCGGCAACGGCTCGCGATCCTCGTGTT
# What was measured:
# [1] = target: T1, MtrA (Mycobacterium tuberculosis) (UniProt P9WGM7); test: DNase I footprinting
# T1 sequence: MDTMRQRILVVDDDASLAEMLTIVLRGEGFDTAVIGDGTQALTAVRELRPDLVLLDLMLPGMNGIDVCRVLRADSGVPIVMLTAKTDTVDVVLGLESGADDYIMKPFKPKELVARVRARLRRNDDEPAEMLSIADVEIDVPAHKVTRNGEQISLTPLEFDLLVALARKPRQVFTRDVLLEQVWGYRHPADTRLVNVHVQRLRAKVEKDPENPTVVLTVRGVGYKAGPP
# MtrA [2] = target: T2, MtrA (Mycobacterium tuberculosis, UniProt P9WGM7 1-228); test: EMSA; 100-600 nM MtrA; settings: protein: recombinant, tags: 6His (pET28a) or GST (pGEX-4T-1), chain copies: 2
# T2 sequence: T1 sequence
# MtrA [3] = target: T2, MtrA; test: EMSA; settings: protein: recombinant; tags: 6His (pET28a) or GST (pGEX-4T-1); chain copies: 2; label: 32P
molecule,measurement,setting,value
AATTCTACGGAAAACTGTTAGCTTCGGGCGGTGTAGTTATCACGCCGTTTCAGCGTGGAAACGGCACTCGACAATCAAGCGAGGATGGC (double strand) [S6 (84 bp)],binding,[1],binds
AATTCTAGCGGCCCGGACAACTTGAACCGGGTGTTTTCAACACGAGGATCGCGAGCCGTTGCCGGTAGGTTGCGGCTGGT (double strand) [S7 (75 bp)],binding,[1],binds
B1,binding result,MtrA [2]; label: 32P,binds
B2,binding result,MtrA [2]; label: 32P (EMSA),binds
B3,binding result,MtrA [3],binds
B4,binding result,MtrA [3],binds
B5,binding result,MtrA [3],binds
B6,binding result,MtrA [3],binds
B7,binding result,MtrA [3],binds
B8,binding result,MtrA [3],no binding
B9,binding result,MtrA [2]; label: 32P,no binding
B10,binding result,MtrA [2]; label: 32P,no binding
B11,binding result,MtrA [2]; label: 32P (EMSA),binds

# — article PMC2945938, “The characterization of conserved binding motifs and potential target genes for M. tuberculosis MtrAB reveals a link between the two-component system and the drug resistance of M. smegmatis”
